For assay [1], the target named is (N67D/)K113N-BS-RNase (bovine) (UniProt P00669). The assay can be described thus: SEC; thermally induced oligomerisation: 150-200 mg/ml in aqueous media (40% EtOH, with or without guanidine, and others), 45, 50 or 60°C for 1 h, then 0.2 M NaPi pH 6.7; Superdex 75.
The target is the same in assay [2]. The description is as above. This is another data set of the same source.
The target is the same in assay [3]. The assay can be described thus: SEC; oligomers induced by lyophilisation from 40% acetic acid, re-dissolved in 0.2 or 0.4 M NaPi pH 6.7; Sephadex G-100 (0.1 M ammonium acetate pH 5.65) or Superdex 75 10/300 GL (0.2 or 0.4 M NaPi pH 6.7), room temperature; amounts as percent area of SEC peaks. A general note: In gel filtration, larger molecules generally elute earlier.

For assay [4], the target named is DFDNB-cross-linked native dimer of N67D-BS-RNase (bovine) (UniProt P00669). The description is as above.
In assay [5] the target is T1, bovine pancreatic ribonuclease (RNase A) (bovine), P61823.
T1 chain: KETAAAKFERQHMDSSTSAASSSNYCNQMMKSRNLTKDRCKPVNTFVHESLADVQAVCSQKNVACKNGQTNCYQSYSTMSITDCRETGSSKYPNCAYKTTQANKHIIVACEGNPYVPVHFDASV
The description is as above. To be noted: remark: other sources report otherwise.

Assay [6] concerns the target T1, bovine pancreatic ribonuclease (RNase …). Put plainly: SEC; thermally induced oligomerisation: 150-200 mg/ml in aqueous media (40% EtOH, with or without guanidine, and others), 45, 50 or 60°C for 1 h, then 0.2 M NaPi pH 6.7; Superdex 75. The conditions noted are these: remark: other sources report otherwise.

The values below come from article PMC3469567.

“And” between values parts separate entries of the source, which are not always exact repeats. Equal values may be shown once.

Turning to “(N67D/)K113N-BS-RNase (from UniProt P00669 27-150) (enzyme)”, in assay [1], the stoichiometry N (in general, the number of molecules, sites or subunits per partner or assembly) is > 4. The molecule further gave a stoichiometry N in assay [2] of 4. Besides, in assay [3], the stoichiometry N came to 4, the yield of dimer D (% of the total) (% of the total) turned out to be 53.7, the yield of hexamers H (% of the total) (% of the total) turned out to be 10.9 and the yield of larger oligomers L.O. (% of the total) (% of the total) turned out to be 9.9. In addition, in assay [3], the yield of tetramer TT1/C (% of the total) (% of the total) was found to be 13.3 and the yield of tetramer TT2/N (% of the total) (% of the total) was 12.2.
In the case of “DFDNB-cross-linked native dimer of N67D-BS-RNase (from UniProt P00669 27-150) (enzyme)”, the stoichiometry N in assay [4] stood at 4.

B1: bovine pancreatic ribonuclease (RNase A), P61823 27-150 (enzyme)
chain: KETAAAKFERQHMDSSTSAASSSNYCNQMMKSRNLTKDRCKPVNTFVHESLADVQAVCSQKNVACKNGQTNCYQSYSTMSITDCRETGSSKYPNCAYKTTQANKHIIVACEGNPYVPVHFDASV
B1: the stoichiometry N in assay [5] was 2 and 3 and 4; in assay [6], 2.
